Residue numbers refer to the chain shown, from its start.
T1: HMHA1 (Rho GTPase-activating protein 45), minor histocompatibility antigen HA-1H, R139H polymorphism peptide … (human)
T1 peptide: VLHDDLLEA

B1: HA-1H TCR2 (TCR, V domains shown)
Valpha: KQEVTQIPAALSVPEGENLVLNCSFTDSAIYNLQWFRQDPGKGLTSLLLIQSSQREQTSGRLNASLDKSSGRSTLYIAASQPGDSATYLCAVIGLGGTYKYIFGTGTRLKVLA
Vbeta: GVSQDPRHKITKRGQNVTFRCDPISEHNRLYWYRQTLGQGPEFLTYFQNEAQLEKSRLLSDRFSAERPKGSFSTLEIQRTEQGDSAMYLCASSLVKGEKLFFGSGTQLSVL
B2: HA-1H TCR16 (TCR, V domains shown)
Valpha: KQEVTQIPAALSVPEGENLVLNCSFTDSAIYNLQWFRQDPGKGLTSLLLIQSSQREQTSGRLNASLDKSSGRSTLYIAASQPGDSATYLCAVHLLNDYKLSFGAGTTVTVRA
Vbeta: B1 Vbeta with K96V, E98N, K99E, L100Q, S104P, Q107R, S109T
B3: TCR1 (TCR, V domains shown)
Valpha: QQGEEDPQALSIQEGENATMNCSYKTSINNLQWYRQNSGRGLVHLILIRSNEREKHSGRLRVTLDTSKKSSSLLITASRAADTASYFCATKRDSGAGSYQLTFGKGTKLSVIP
Vbeta: GVSQDPRHKITKRGQNVTFRCDPISEHNRLYWYRQTLGQGPEFLTYFQNEAQLEKSRLLSDRFSAERPKGSFSTLEIQRTEQGDSAMYLCASSSTGGHNEQFFGPGTRLTVL
B4: TCR5 (TCR, V domains shown)
Valpha: QQGEEDPQALSIQEGENATMNCSYKTSINNLQWYRQNSGRGLVHLILIRSNEREKHSGRLRVTLDTSKKSSSLLITASRAADTASYFCATNSGNTPLVFGKGTRLSVIA
Vbeta: GVSQDPRHKITKRGQNVTFRCDPISEHNRLYWYRQTLGQGPEFLTYFQNEAQLEKSRLLSDRFSAERPKGSFSTLEIQRTEQGDSAMYLCASSLTTLDEQYVGPGTRLTVT
B5: TCR10 (TCR, V domains shown)
Valpha: KNQVEQSPQSLIILEGKNCTLQCNYTVSPFSNLRWYKQDTGRGPVSLTIMTFSENTKSNGRYTATLDADTKQSSLHITASQLSDSASYICVVDSGGGADGLTFGKGTHLIIQP
Vbeta: B4 Vbeta with L94M, T95L, L97N, D98Y, V102F

Target: T1, HMHA1 (Rho GTPase-activating protein …)
Experiment: chromium release, peptide titration on pulsed target cells; one value stated for the seven clones together (FIG. 2B); T cell clone or line
Procedure: (A) HLA-A2/HA-1^H multimer and CD8⁺ monoclonal antibody staining of seven (7) representative HA-1^H specific clones (1, 2, 10, 13, […], 16, and 5) and a control clone specific for another tumor antigen. (B) Data from a chromium release assay in which the seven HA-1^H-specific clones were tested for killing HA-1 peptide-pulsed target cells. (C) Data from cytotoxicity assays in which the HA-1^H-specific CTL clones were incubated with peptide-pulsed T2 cells, HA-1^H+ AML cell line THP-1, HA-1^H+ primary AML, or HA-1⁻ AML.
In addition, a chromium release assay (CRA) was used to test 7 of the HA-1-specific CTL clones (1, 2, 10, 13, 14, 16 and 5) for killing of HA-1^H peptide-pulsed targets. The T cell clones recognized HA-1^H peptide ([…])-pulsed target cells at very low peptide concentrations and half-maximal lysis is seen at a peptide concentration of 10 pM. (FIG. 2B) (ICC data not shown). Cytotoxicity of the isolated clones against cells with or without endogenous HA-1^H expression was also examined. The assays show 7 HA-1^H-specific CTL clones (TCR1, TCR2, TCR10, TCR13, TCR14, TCR16 and TCR5) lysing HA-1^H+ acute myeloid leukemia (AML) cell line (THP-1) and HA-1^H+ primary AML but not HA-1^H- AML (FIG. 2C).

| Binder | EC50 of peptide [nM] |
| --- | --- |
| B1 | 0.01 |
| B2 | 0.01 |
| B3 | 0.01 |
| B4 | 0.01 |
| B5 | 0.01 |

— patent US20190211076A1 (published 2019)
